Reference: US20200115460A1 (TEIJIN PHARMA, published 2020)

Tests used:
[1] = biological target: T1, recombinant human IGF-I receptor His tag (305-GR-050, R&D SYSTEMS) (human, UniProt P08069 31-932, limits assumed); assay: SPR, Biacore T200, 36 °C, IGF-IR-His captured by anti-His antibody, 1:1 model
T1 construct: Bought protein, captured on an anti-His antibody chip; also called IGF-IR-His; not shown: His tag
Protocol: An anti-His monoclonal antibody was immobilized to a sensor chip CM3 (GE) with an Amine Coupling Kit (BR-1000-50, GE) and a His Capture Kit (28-9950-56, GE). The immobilization conditions were NHS/EDC: 7 minutes, 50 μg/mL anti-His monoclonal antibody: 3 minutes, ethanolamine: 7 minutes, and target: ≥3000 RU. As analytes, the agent was used at predetermined concentrations.
The sensor chip CM3 immobilized with the anti-His monoclonal antibody was set to Biacore T200, the reaction temperature was set to 36° C., and a running buffer (HBS-EP+, BR-1006-69, GE) was fed at a flow rate 30 μL/min. The amount of the binding ligand was set to about 100 RU, and IGF-IR-His (0.5 to 2×10⁻⁸ mol/L) was added to the sensor chip to be captured by the anti-His monoclonal antibody. Ctrl IgG2a (10 nmol/L) was allowed to react for 1 minute, and HBS-EP+ was fed at a flow rate of 30 μL/min for at least 10 minutes. The analyte and HBS-EP+ were added to flow cells (1 and 2) and flow cells (3 and 4), respectively.
The reaction conditions were set to a binding time of 600 seconds and a dissociation time of 600 seconds. After completion of the reaction, washing was performed with regeneration buffer 1 (0.2% SDS), regeneration buffer 2 (100 mmol/L Tris-HCl (pH 8.5), 1 mol/L NaCl, 15 mmol/L MgCl₂), and regeneration buffer 3 (10 mmol/L glycine-HCl (pH 1.5)) for 1 minute each at a flow rate of 30 μL/min.

human insulin receptor = biological target: T2, human insulin receptor (human, UniProt P06213 28-1382); assay: Cell ELISA on HEK 293T cells expressing human insulin receptor
T2 construct: whole, on cells; Expressed on transfected HEK 293T cells; also called INSR; hINSR
Protocol: The HEK 293T cells after the lipofection were added to a 96-well plate (coated with poly-D-lysine) at a concentration of 0.8×10⁵ cells/well (about 180 μL/well) and were immobilized with 10% buffered formalin (Mildform® 10 NM, Wako), followed by blocking with phosphate buffer containing 3% BSA. The plate was used in ELISA.
In ELISA, antibody solutions (30 μL) adjusted to predetermined concentrations with 0.1% skimmed milk/3% BSA/PBS were added to respective wells and were subjected to reaction at room temperature for about 1 hour. After washing with a washing liquid (tris buffer containing Tween) twice, anti-mouse-IgG antibody-ALP conjugate solutions (30 μL) adjusted to predetermined concentrations with 0.1% skimmed milk/3% BSA/PBS were added to respective wells and were subjected to reaction at room temperature for about 1 hour. After washing with a washing liquid twice, 100 μL of a substrate (PNPP) was added to each well to start the reaction.

Kd [1]: < 0.01 nM
koff [1]: < 1e-05 s⁻¹
kon [1]: 1.05e+06 M⁻¹ s⁻¹
B1: IGF11-16 (antibody, mouse IgG1, kappa, V domains shown)
VH: QIQLQQPGAELVKPGASVKLSCKAPGYTFTSYWMHWVKQRPGQGLEWIGETNPSNSVTNYNEKFKSKATLTVDKSSSTAYMQLSSLTSEDSAVYYCTIGRGRGFAYWGQGTLVTVSA
VL: DIQMNQSPSSLSASLGDTITITCRASQNINFWLSWCQQKPGNIPKLLIYKASNLHTGVPSRFSGSGSGTDFTLTISSLQPEDIATYYCLQGQSYPYTFGGGTKLEIKR
notes: no cleavage site is stated; also called IGF-I receptor agonist antibody; IGF11-16 antibody
binding result (human insulin receptor): no binding (tested: 0.5 nM and 5 nM; 1.5-fold of Mock cells)
